Experiment [1] has as its target cynomolgus monkey PD-1 (soluble analyte, Octet RED 96) (UniProt B0LAJ3). Put plainly: Octet RED 96.
In experiment [2] the target is Human PD-1 (soluble analyte, Octet RED 96) (human) (UniProt Q15116). Nature of the experiment: Octet RED 96.
Experiment [3] has as its target human PD1 receptor on Jurkat-PD1-NFAT-Luc2 reporter cells (human) (UniProt Q15116). Put plainly: cell-based or functional assay.
A further experiment addresses FcgRIa. Put plainly: Octet RED 96.
The next experiment deals with FcgRIIb. Put plainly: Octet RED 96.
For the next experiment, the target named is FcgRIIaH. Put plainly: Octet RED 96.
A further experiment has as its target FcRn. Put plainly: Octet RED 96.
A further experiment concerns the target FcgRIIIaV. Nature of the experiment: Octet RED 96.

Human PD-1 (soluble analyte, Octet RED 96) (human), sequence (Q15116 25-167): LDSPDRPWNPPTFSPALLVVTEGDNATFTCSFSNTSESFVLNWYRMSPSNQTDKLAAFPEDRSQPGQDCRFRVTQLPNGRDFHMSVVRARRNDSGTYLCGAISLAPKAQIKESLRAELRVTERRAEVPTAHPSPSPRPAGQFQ
human PD1 receptor on Jurkat-PD1-NFAT-Luc2 reporter cells (human), sequence (Q15116 25-288): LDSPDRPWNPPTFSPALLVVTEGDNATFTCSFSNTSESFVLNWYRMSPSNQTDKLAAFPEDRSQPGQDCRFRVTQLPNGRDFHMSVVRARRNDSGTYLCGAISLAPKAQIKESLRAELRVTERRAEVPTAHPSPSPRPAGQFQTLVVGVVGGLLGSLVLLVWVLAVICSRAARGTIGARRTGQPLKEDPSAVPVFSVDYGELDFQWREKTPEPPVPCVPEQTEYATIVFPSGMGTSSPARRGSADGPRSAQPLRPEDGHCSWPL

On to BCD-100, for which the Kd in experiment [1] was less than 0.001 nM; in experiment [2], 0.186 nM.

Regarding BCD-100 (antibody), the effective dose (ED50), reactivation of NFAT-luciferase luminescence in Jurkat-PD1-NFAT reporter line in experiment [3] was determined as 115.

As for Nivolumab IgG4, the dissociation constant (Kd) in the experiment with FcgRIa was 64 nM; with FcgRIIb, 280 nM; with FcgRIIaH it was 1600 nM; with FcRn, 9.52 nM; with FcgRIIIaV it was 4200 nM.

As for Pembrolizumab IgG4, the Kd with FcgRIa stood at 50 nM; in the experiment with FcgRIIb it was 2300 nM; with FcgRIIaH it was 1300 nM; in the experiment with FcRn it was 5.1 nM; with FcgRIIIaV, 5000 nM.

The record behind these values is patent US20190127478A1.
